Biological target: JunB-6×His
Assay: co-purification

stoichiometry N: 1
B1: mCherry-BATF1 (natural protein)
chain: MPHSSDSSDSSFSRSPPPGKQDSSDDVRKVQRREKNRIAAQKSRQRQTQKADTLHLESEDLEKQNAALRKEIKQLTEELKYFTSVLSSHEPLCSVLASGTPSPPEVVYSAHAFHQPHISSPRFQP
